# Data: US20240117054A1 (DRAGONFLY THERAPEUTICS, published 2024)
# Positions count from the first letter of the chain named.
# T1: cynomolgus monkey FLT3 (cFLT3) expressed on RMA cells (cynomolgus monkey, UniProt A0A2K5VQ48 27-993)
# T1 construct: whole, on cells; also called RMA-cFLT3; cynomolgus FLT3
# T1 sequence: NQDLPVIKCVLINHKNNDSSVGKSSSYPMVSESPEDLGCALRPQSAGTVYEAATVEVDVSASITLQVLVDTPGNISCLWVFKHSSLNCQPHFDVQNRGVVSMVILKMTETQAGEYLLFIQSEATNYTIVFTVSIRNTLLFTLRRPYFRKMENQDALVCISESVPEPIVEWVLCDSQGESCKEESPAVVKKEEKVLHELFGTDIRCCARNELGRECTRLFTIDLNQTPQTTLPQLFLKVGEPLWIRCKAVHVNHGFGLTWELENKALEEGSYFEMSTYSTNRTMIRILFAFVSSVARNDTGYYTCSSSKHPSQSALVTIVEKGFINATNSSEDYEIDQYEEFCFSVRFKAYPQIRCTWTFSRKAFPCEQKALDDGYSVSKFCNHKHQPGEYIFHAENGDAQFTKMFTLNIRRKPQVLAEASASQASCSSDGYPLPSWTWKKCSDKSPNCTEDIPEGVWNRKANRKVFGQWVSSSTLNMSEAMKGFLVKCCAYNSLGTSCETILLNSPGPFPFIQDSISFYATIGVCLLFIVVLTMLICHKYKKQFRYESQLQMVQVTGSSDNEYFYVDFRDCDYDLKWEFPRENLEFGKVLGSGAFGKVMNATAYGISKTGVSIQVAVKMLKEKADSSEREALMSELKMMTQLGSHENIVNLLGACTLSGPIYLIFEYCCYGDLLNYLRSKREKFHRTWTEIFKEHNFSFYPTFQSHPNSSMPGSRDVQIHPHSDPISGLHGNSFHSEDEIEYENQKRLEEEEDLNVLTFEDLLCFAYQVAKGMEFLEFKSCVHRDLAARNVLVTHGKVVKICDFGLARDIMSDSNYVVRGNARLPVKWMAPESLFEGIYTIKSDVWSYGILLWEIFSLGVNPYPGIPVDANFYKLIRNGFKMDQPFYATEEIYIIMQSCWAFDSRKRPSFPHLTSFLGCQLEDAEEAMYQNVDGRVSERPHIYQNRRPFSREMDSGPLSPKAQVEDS
# T2: human FLT3 (hFLT3) expressed on cells (human, UniProt P36888 27-993)
# T2 sequence (looked up): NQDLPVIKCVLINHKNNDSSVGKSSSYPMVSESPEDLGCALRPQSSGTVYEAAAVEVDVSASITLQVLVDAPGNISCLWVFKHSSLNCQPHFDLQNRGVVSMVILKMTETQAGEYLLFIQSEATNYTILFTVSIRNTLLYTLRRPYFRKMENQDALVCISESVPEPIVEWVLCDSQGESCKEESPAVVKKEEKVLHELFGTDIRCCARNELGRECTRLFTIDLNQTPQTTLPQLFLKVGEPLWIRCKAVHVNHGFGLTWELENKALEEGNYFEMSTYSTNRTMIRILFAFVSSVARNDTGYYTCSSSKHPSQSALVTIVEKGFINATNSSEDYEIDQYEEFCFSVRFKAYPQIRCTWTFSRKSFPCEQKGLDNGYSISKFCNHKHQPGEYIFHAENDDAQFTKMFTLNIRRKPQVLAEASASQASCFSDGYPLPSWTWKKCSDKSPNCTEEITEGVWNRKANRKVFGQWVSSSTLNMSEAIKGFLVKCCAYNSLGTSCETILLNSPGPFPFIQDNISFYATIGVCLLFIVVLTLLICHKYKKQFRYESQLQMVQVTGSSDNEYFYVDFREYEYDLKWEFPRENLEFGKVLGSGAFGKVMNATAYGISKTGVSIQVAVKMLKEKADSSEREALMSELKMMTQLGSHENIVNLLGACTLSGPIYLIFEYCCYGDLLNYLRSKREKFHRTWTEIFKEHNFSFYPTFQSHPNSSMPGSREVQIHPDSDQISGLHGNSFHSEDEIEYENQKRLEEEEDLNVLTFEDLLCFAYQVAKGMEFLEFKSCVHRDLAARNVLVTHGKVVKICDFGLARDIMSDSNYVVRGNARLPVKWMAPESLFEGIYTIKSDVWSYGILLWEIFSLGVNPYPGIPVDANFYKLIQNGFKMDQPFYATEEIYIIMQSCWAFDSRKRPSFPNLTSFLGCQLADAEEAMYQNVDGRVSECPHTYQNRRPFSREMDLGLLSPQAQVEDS
# T3: hFLT3-His fusion protein (human, UniProt P36888 27-541, limits assumed)
# T3 construct: Soluble recombinant antigen used for immunisation, ELISA, SPR and BLI binning; also called recombinant hFLT3 protein; not shown: His tag
# T3 sequence (looked up): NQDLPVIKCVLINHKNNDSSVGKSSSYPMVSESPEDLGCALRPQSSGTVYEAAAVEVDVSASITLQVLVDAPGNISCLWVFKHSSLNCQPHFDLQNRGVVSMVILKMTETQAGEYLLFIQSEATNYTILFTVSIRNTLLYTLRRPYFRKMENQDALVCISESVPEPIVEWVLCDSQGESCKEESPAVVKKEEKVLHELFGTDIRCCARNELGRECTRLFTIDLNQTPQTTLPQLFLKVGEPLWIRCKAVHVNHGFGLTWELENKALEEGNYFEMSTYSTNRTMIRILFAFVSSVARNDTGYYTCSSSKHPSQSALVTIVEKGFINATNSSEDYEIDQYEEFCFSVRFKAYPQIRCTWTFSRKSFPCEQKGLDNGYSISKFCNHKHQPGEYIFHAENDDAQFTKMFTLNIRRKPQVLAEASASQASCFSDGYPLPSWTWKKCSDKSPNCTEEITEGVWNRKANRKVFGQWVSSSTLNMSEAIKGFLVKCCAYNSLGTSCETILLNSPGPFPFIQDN
# B1: 1A2.A3 (antibody, V domains shown)
# VH: EVQLQESGPELVKPGASVKISCKASGYSFTGYYIHWVKQSPEESLEWIGEIYPNTGITTYNQKFTAKATLTVDKSSNTAYMQLKSLTSEDSAVYYCTRWGDYYGRDYWGQGTSVTVSS
# VL: DIVLTQSPASLAVSLGQRATISCRASETVDTHGNSFMHWYQQKPGQPPKLLIYRASNLESGIPARFSGSGSRTDFTLTINPVEADDVATYYCQQSNEDPRTFGGGTKLEIK
# notes: Purified murine mAb from a hybridoma subclone
# B2: 11F4.B9 (antibody, V domains shown)
# VH: B1 VH with S40G, E43K, Y52I, N54S, I57S, T59I, T65K, N77S, M81L, T97E
# VL: B1 VL with T28S, T31I, H32Y
# notes: as for B1
# B3: 12C9.E5 (antibody, V domains shown)
# VH: EVQLQESGAELVRPGASVKLSCKASGYIFTDYEIHWVKQTPVHGLEWIGAIDPETGITAYSQKFKGKATLTTDTSSSTAYMEFRSLTSEDSAVYYCTRGGLLYWGQGTSVTVSS
# VL: DVVMTQTPLSLSVTIGQPASISCKSSQSLLYSDGETYLNWLQQRPGQSPKRLMYQVSKLDPGIPDRFSGSGSETDFTLKISRVEAEDLGIYYCLQGTFYPHTFGGGTKLEIK
# notes: as for B1
# B4: 12H10.G7 (antibody, V domains shown)
# VH: EVQLQESGPELVKPGASVKMSCKASGYTFTRYVMHWVKQRPGQGLEWIGFINPYNDDTKYNEKFKGKATLTSDKSSSTAYMELSSLTSEDSAVYHCARWRQLGSLDSWGQGTTLTVSS
# VL: NIVLTQSPASLAVSLGQRATISCRASESVDTYGSSFVHWYQQKPGQPPKLLIYLASNLESGVPARFSGSGSRSDFTLTIDPVEADDAATYYCQQNNEEPWTFGGGTKLEIK
# notes: as for B1
# B5: 4H2.E3 (antibody, V domains shown)
# VH: EVQLQESGPELVKPGASVKMSCKASGYTFTSYLMHWMKQKPGQGLEWIGYINPYSDGIKYNEKFRDKATLTSDKSSNTAYMELSSLTSEDSAVYYCAHSSGYVGYAMDYWGQGTSVTVSS
# VL: GIVMTQTTPSVPVTPGESVSISCRSSKSLLHSNGNTYLYWFLQRPGQSPQLLIYRMSNLASGVPDRFSGSGSGTTFTLRISRVEAEDVGVYYCMQHLEYPFTFGSGTKLEIK
# notes: as for B1
# B6: 15A11.C8 (antibody, V domains shown)
# VH: EVQLQESGGGLVKTGGSRKLSCAASGFTFSDYGMHWVRHTPEKGLEWVVYISSGGNTIFYTDTVKGRFTISRDNAKNTLFLQMTSLRSEDTAVYFCVRQGYYYAMDYWGQGASVTVSS
# VL: DIQMTQTTSSLSASLGDRVTIRCRASQDITNYLNWYQQKPDGAVKLLISYTSILQSGVPSRFSGSGSGTDYSLTISNLEQGDVATYFCQQGSSLPWTFGGGTKLEIK
# notes: as for B1
# B7: 14A5.E8 (antibody, V domains shown)
# VH: EVQLQESGAELVQPGASVRLSCKASGYTFTSYWINWVKQRPGQGLEWIGNIYPGSSIINYNENFKNRATLTVDTSSSTAYMQLSSLTSDDSAVYYCARRVVYLYFDYWGQGTTLTVSS
# VL: QIVLTQSPAIMSASPGEKVTMTCSASSSVSYMHWYQQKSGTSPKRWIYDTSKLASGVPARFSGSGSGTSYSLTISSMEAEDAATYYCQQWTSKSPTFGGGTKLEIK
# notes: as for B1
# B8: 4A4.A3 (antibody, V domains shown)
# VH: QVTLKESGPGILQPSQTLSLTCSFSGFSLTTYGMGVGWIRQPSGKGLEWLANIWFNDNKYYNSTLKSRLTISKDTSNNQVFLKISSVDTTDTATYYCAQITTVVGTFDYWGQGSPLTVSP
# VL: RIVMTQSPTTMAASPGEKITITCSASSSISSIYLHWYQQKPGFSPKLLIFRTSDLASGVPPRFGGSGSGTSYSLTIGTMEAEDVATYYCQQGSSFPRTFGGGTKLEIK
# notes: as for B1
# B9: FLT3-ligand (ligand, human, UniProt P49771 27-185, looked up)
# chain: TQDCSFQHSPISSDFAVKIRELSDYLLQDYPVTVASNLQDEELCGGLWRLVLAQRWMERLKTVAGSKMQGLLERVNTEIHFVTKCAFQPPPSCLRFVQTNISRLLQETSEQLVALKPWITRQNFSRCLELQCQPDSSTLPPPWSPRPLEATAPTAPQPP
# Molecular target: T1, cynomolgus monkey FLT3 (cFLT3) …
# Assay: flow cytometry, purified mAb on RMA-cFLT3 cells
EC50 [nM],Max MFI [MFI],binding result,Binder
1.82,2830,–,B1
1.23,2590,–,B2
–,–,no binding,B3
0.94,5260,–,B4
1.56,3450,–,B5
0.82,6510,–,B6
1.25,1780,–,B7
1.07,5570,–,B8

# Molecular target: T2, human FLT3 (hFLT3) expressed on cells
# Assay: cell-based or functional assay
row,"pFLT3 levels (pFLT3 ELISA, EOL-1 cells) [fold]",Binder
1,3,B9

# Molecular target: T3, hFLT3-His fusion protein
# Assay: SPR, purified murine subclone mAb, hFLT3-His
Kd [nM],koff [s⁻¹],kon [M⁻¹ s⁻¹],Binder
8.5,0.00089,110000,B1
1.7,0.00025,150000,B2
18.7,0.00063,34000,B3
5.4,0.00055,100000,B4
17.6,0.001,57000,B5
10.5,0.00048,45000,B6
15.1,0.0019,130000,B7
7.3,0.00082,110000,B8

# Molecular target: T2, human FLT3 (hFLT3) expressed on cells
# Assay: flow cytometry, purified mAb on RMA-hFLT3 cells
EC50 [nM],Max MFI [MFI],Binder
0.8,499,B1
0.53,493,B2
0.36,1140,B4
0.66,696,B5
0.41,1410,B6
~2.07,415,B7
0.72,1020,B8

# Molecular target: T2, human FLT3 (hFLT3) expressed on cells
# Assay: flow cytometry, purified mAb on SEM cells
EC50 [nM],Max MFI [MFI],Binder
5.47,1360,B1
2.43,1140,B2
3.2,2830,B4
7.57,1510,B5
~1.13,3860,B6
~1.07,1960,B7
3.29,2350,B8
